Legend:
Tau 4R2N = molecular target: T1, Tau 4R2N (Homo sapiens, UniProt P10636); assay: Autoproteolytic activity of purified tau monomer, dimer and trimer (SDS-PAGE); format: biochemical
T1 construct: Stabilization buffer enables production of full length monomer, dimer and trimer for tau protease; made in house; host or cells: E. coli BL21 (DE3) Gold
Method: This example describes the identification of the autoproteolytic activity of tau oligomers.
Purified recombinant human tau 4R2N was prepared as described in the flow chart. Monomer, dimer and trimer species were purified preparative electrophoresis from a tau 4R2N preparation that had formed oligomers. The electrophoresis buffer contained 0.1% SDS which inhibited the proteolytic activity. Fractions containing the tau species were buffer exchanged into 25 mM Tris-HCl pH 7.4 using and Amicon ultrafiltration device (Merck Millipore, Billerica, Mass.), which led to restoration of tau autoproteolytic activity. Protein concentrations of the preparations were determined using the BCA kit (ThemoFisher Scientific). Samples were run on a pre-cast 4-20% polyacrylamide Tris-HCl gel (BioRad, Hercules, Calif.) without using reductant in order to visualize the disulfide mediated oligomers. The gel was stained with GelCodeBlue Safe (ThermoFisher Scientific, Rockford, Ill.). Lane 1: 5.2 μg of tau 4R2N oligomer standard; Lane 2: 2 microliter of monomer fraction before buffer exchange; Lane 3: 0.5 μg monomer after buffer exchange; Lane 4: […] of dimer fraction before buffer exchange; Lane 5: 0.5 μg dimer after buffer exchange; Lane 6: 20 μL trimer fraction before buffer exchange; Lane 7: 0.5 μg trimer after buffer exchange.
Tau 4R2N undergoes autoproteolytic cleavage (self-cleavage) when it forms disulfide-mediated oligomers upon incubation. Tau autoproteolyic activity co-purified with the dimer and trimer species. The amount of autoproteolytic activity was greatest with trimer which fragmented to the extent where no full size trimer remained after incubation. […] It was also shown that Tau autoproteolytic activity co-purified with dimer and trimer species. […] Full-length trimer digested completely into smaller fragments, and upon incubation, monomer formed an oligomeric ladder that produced a low level of autoproteolytic activity.
(§1) Monomer, Dimer, and Trimer of Tau 441 were purified under non-reducing conditions using continuous-elution electrophoresis. Fractions of each oligomer sample were pooled and buffer exchanged into stabilization buffer using an Amicon spin concentrator with a molecular weight cut-off of 30,000 daltons. 0.35 μg of each sample was incubated overnight at 37° C. while non-incubated control was kept on ice at 4° C. Next day, 2×SDS sample buffer without reductant was added to each sample and loaded onto a 4-20% gradient Tris-HCl Criterion Gel (Bio-Rad, Hercules, Calif.).
as §1, with “This example presents results from a contamination control study of tau protease. Monomer,” for “Monomer,”, “2× sodium dodecyl sulfate” for “2×SDS”
Lane 1—tau oligomer ladder standard; Lane 2—empty; Lane 3—purified monomer no incubation (fraction from purification plate); Lane 4—purified monomer without incubation; Lane 5—purified monomer with incubation; Lane 6—purified dimer without incubation; Lane 7—purified dimer with incubation; Lane 8—purified trimer without incubation; purified trimer with incubation overnight at 37° C. Lanes 3-9 were treated with sample buffer containing β-mercaptoethanol (BME).

[1] = system: Tau 4R1N oligomer mixture; assay: Cleavage of tau 4R1N by tau 4R2N trimer (SDS-PAGE); format: biochemical; conditions: overnight at 37° C.
Method: Tau oligomer formation leads to gain of toxic function and loss of function of tau monomer degraded by tau 4R2N trimer activity. Lane 1: Tau 4R2N monomer (0.1 μg); Lane 2: 1× Sample Buffer without reductant; Lane 3: 4R2N Trimer, no 4R1N; Lane 4:Tau 4R1N, no tau 4R2N trimer; Lane 5: Tau 4R2N trimer:tau 4R1N, 1:10; Lane 6: Tau 4R2N trimer:tau 4R1N trimer, 1:100; Lane 7: Tau 4R2N trimer:tau 4R1N 1:10. […] The arrows indicate fragments of tau 4R1N that are generated from tau 4R2N trimer protease activity. For the upper arrow, the fragments have the same apparent MW between the two isoforms, the lower arrow fragments differ with the fragment from tau 4R1N migrating faster than the fragment from tau 4R2N;

T1 sequence (P10636 1-441 isoform P10636-8): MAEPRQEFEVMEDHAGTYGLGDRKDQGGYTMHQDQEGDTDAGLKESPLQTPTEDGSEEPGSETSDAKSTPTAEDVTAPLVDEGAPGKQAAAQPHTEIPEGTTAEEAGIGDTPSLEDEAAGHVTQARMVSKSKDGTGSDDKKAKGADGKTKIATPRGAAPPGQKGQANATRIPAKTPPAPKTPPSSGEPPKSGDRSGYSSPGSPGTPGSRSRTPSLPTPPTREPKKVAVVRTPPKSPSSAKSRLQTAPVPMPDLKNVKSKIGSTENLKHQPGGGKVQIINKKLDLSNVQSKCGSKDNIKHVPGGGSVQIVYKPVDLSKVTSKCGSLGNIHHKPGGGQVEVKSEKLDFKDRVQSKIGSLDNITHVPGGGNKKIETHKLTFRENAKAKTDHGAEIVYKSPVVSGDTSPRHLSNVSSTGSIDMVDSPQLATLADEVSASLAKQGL

tau 4R2N trimer: purified disulfide-mediated trimer species of recombinant human tau 4R2N
degradation in contamination control study (Example 3) (Tau 4R2N; 0.35 μg, overnight at 37° C., equal sample volumes from purification): preferentially degraded
autoproteolytic activity (Example 1) (Tau 4R2N; after buffer exchange into 25 mM Tris-HCl pH 7.4, incubation at 37° C.): greatest
cutting of tau 4R1N [1]: cuts tau (4R1N) monomer and tau dimer

— US10597649B2, “Tau protease compositions and methods of use” (Oligomerix, Inc., priority 2011, dated 2020)
